Measurements as given in patent US20240043859A1, “HERBICIDE-RESISTANT PROTEIN, AND GENE AND USE THEREOF” (QINGDAO KINGAGROOT CHEMICAL COMPOUND CO., LTD., priority 2020, published 2024).
Entries after “also recorded” stand apart in the source; their conditions may differ.

What was measured:
[1] = Chromogenic reaction of degrading herbicides in bacteria: 2,4-D; type: cell-based, Escherichia coli; conditions: recombinant E. coli expressing the gene, 2,4-D added to the medium, red = phenols
How it was run: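 E. coli BL21(DE3) carrying AAD12 or empty pET15b was induced with 0.1 mM IPTG plus 2 mM α-ketoglutarate and given 0.5 mM 2,4-D, then grown overnight at 28 °C. Supernatant was treated with pH 10 borate, potassium ferricyanide and 4-aminoantipyrine for 5 min at room temperature; red colour read at A510.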

Arabidopsis thaliana = assay: Herbicide resistance of transgenic Arabidopsis thaliana seedlings on plate medium (root growth); type: in vivo; conditions: Arabidopsis overexpressing the gene
How it was run: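 T2 lines overexpressed AAD from the AtUbi10 promoter with the MAS terminator, with hygromycin selection; two events per construct were tested on plates against 2,4-D, 2,4-DB sodium and MCPA. The screening medium was MS plus 0.3 μM 2,4-D. Seeds were stratified 3 days at 4 °C, grown at 22 °C on 16 h light, and root elongation was compared with wild type after one week.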

B1: QYD42: AAD-like enzyme, SEQ ID NO. 83; expressed from vectors pQY2309 (Arabidopsis), pQY2329 (maize), pQY2330 (soybean) (protein)
chain: MQITPIADATFGATVTGLRLATLDDAGFARLHAAWLQHALLVFPGQFLTNAEQIGFAKRFGPIERIGGGDIVAISNVKADGTVRQHSPAEWDDMMKVIVGNMAWHADSTYMPVMAQGAVFSAEVVPPTGGRTCFADMRAAYDALDDATRALVHQRSARHSLVYSQSKLGHVQQAGSAYVGYGMDTTATPLRPLVKRHPETGRLSLLIGRHAHAIPGLEEAESERFLEDLVAWACQPPRVVAHHWTAGDVVLWDNRCLLHRAEPWDFTLPRVMWHSRLAGHPETEAAPLV
modifications: Synthetic polypeptide, QYD42, D42
Chromogenic reaction of degrading herbicides in bacteria: 2,4-D [1]: Yes
Chromogenic reaction of degrading herbicides in bacteria: 2,4-D ([1]; listed as D42): could degrade 2,4-D; also recorded: capable of degrading 2,4-D
Resistance of transgenic Arabidopsis thaliana: 2,4-D (Arabidopsis thaliana): Yes
Resistance of transgenic Arabidopsis thaliana: MCPA (Arabidopsis thaliana): Yes
